Results from patent US20040254352A1, “Lipid-polymer-conjugates” (priority 2001, published 2004).
Values joined by “and” are separate entries in the source; they are usually repeats but may differ in a detail not shown here. Equal values may be shown once.

Columns and labels:
[1] = Comparative kinetics of 3H-labelled liposomes containing polymer-lipid-conjugates after a single intravenous injection to the rat (blood circulation time); settings: for Increase of blood circulation time: rat, single i.v. injection; for Blood circulation time of the liposomes compared with PEG-grafted liposomes: intravenous administration to rats
Description: Single-dose intravenous injection of liposomal preparations, each containing ^3H-labelled cholesteryloleylether (Amersham) having 40-50 kBq of radioactivity, (compositions per 50 μmol lipid are shown in Table 1) was given into the tail-vein. Total Lipid administered was 5 μmol, except in the cases indicated.
Blood samples were collected from the tail vein of each rat at the following time points post-dose: 5 minutes and 4, 24 and 48 hours. The amount of sample collected was approx. 300 μl per sampling event.
Sampled blood was transferred into heparinised tubes and stored at −20° C.
A single aliquot of 100 μl was solubilised according to the following method:
Radioactivity was measured by LSC.
All radioactive measurements were performed using a Packard scintillation counter (1900TR). Counting time was to a statistical precision of ±0.2% or a maximum of 5 minutes, whichever comes first. The Packard 1900TR was programmed to automatically subtract background and convert counts per minute (CPM) to disintegrations per minute (DPM).
The increase of blood circulation time was assessed, wherein:
Moderate means effect on circulation time in between those shown by PEG-DSPE-containing liposomes and bare liposomes without polymer coating.
Slightly means effect on circulation time under the current conditions almost similar to that shown by bare liposomes.

[2] = Particle size and polydispersity of liposomes by (dynamic) light scattering; format: physicochemical; settings: DPPC/cholesterol/conjugate liposomes of Table 1 (Example 21); for Average particle size: dynamic light scattering
Description: The lipid loss during preparation of the liposomes was 25%, determined by comparing the final radioactivity of the preparation with the activity before the extrusion procedure. The suspension of liposomes was stored in a nitrogen atmosphere at 4° C. Liposomes were prepared using the film method, as described in example 20. Instead of egg phosphatidylcholine dipalmitoyl phosphatidylcholine was used. 5 mM HEPES buffer was added to the dry lipid film and shaken during 5 minutes in the presence of glass beads in order to enable complete hydration of the lipid film. The liposomes were sized by extrusion 12 times through 2 stacked PC membranes having pore sizes of 100 and 200 nm. […] See table 1 for the properties of the liposomal preparations.

[3] = as above; format: physicochemical
[4] = Storage stability of prednisolone phosphate liposomes at 4° C. (percentage encapsulated prednisolone phosphate versus time); settings: compared with poly(2-hydroxyethyl)-L-glutamine-diaminobutane DODASuc-conjugate-containing liposome
[5] = Total Lipid administered 5 μmol
[6] = prednisolone phosphate liposomes of Example 23, light scattering
[7] = Total Lipid administered 0.005 μmol
[8] = Total Lipid administered 0.05 μmol
[9] = Total Lipid administered 0.5 μmol
[10] = 11.2 mg conjugate per 50 µmol lipid
[11] = 13.8 mg conjugate per 50 µmol lipid

## CCCCCCCCCCCCCCCCCCN(CCCCCCCCCCCCCCCCCC)C(=O)CCC(=O)NCCC(=O)NCCC(=O)NCCC(=O)N[C@@H](CCC(=O)NCCO)C(=O)NCCC(=O)NCCC(=O)NCCC(=O)NCCC(=O)N[C@@H](CCC(=O)NCCO)C(=O)NCCC(=O)NCCC(=O)NCCC(=O)N[C@@H](CCC(=O)NCCO)C(=O)NCCC(=O)NCCC(N)=O [Ex. 19, DODASuc-(β-Ala)3-HEG-(β-Ala)4-HEG-(β-Ala)3-HEG-(β-Ala)2-NH2]
[1]; [5]
  Increase of blood circulation time: Moderate

## Cholesteryl-PHEG [Ex. 6]
[2]
  Polydispersity index: 0.116
  Average particle size: 138.7 ± 1.8 nm
[1]; [5]
  Increase of blood circulation time: Slightly

## PEG-distearoylphosphatidylethanol-amine [PEG-DSPE, reference compound]
[2]
  Average particle size: 156.3 nm
[3]; [6]
  Mean particle size: ~90 nm
[1]; [7]
  Increase of blood circulation time: <Slightly
[1]; [8]
  Increase of blood circulation time: Good
[1]; [9]
  Increase of blood circulation time: Good
[1]; [5]
  Increase of blood circulation time: Good

## PHEG-diaminobutane DODASuc [Ex. 5.1]
[2]
  Polydispersity index: 0.090 and 0.073
  Average particle size: 140.3 ± 2.2 nm and 159.0 ± 3.8 nm
[1]
  Blood circulation time of the liposomes compared with PEG-grafted liposomes: Results similar to those obtained with the corresponding PEG-grafted liposomes
[1]; [5]
  Increase of blood circulation time: Good and Good §

## Poly(2-hydroxyethyl)-DL-glutamine diaminobutane DODASuc [Ex. 7]
[2]
  Polydispersity index: 0.073
  Average particle size: 159.0 ± 3.8 nm

## Poly(2-hydroxyethyl)-L-asparagine DODASuc [Ex. 11]
[4]
  Stability of liposomal preparation with encapsulated prednisolone phosphate: slightly better result
[1]
  Blood circulation time of the liposomes compared with PEG-grafted liposomes: Results similar to those obtained with the corresponding PEG-grafted liposomes
[1]; [7]
  Increase of blood circulation time: Slightly
[1]; [8]
  Increase of blood circulation time: Good
[1]; [9]
  Increase of blood circulation time: Good
[1]; [5]
  Increase of blood circulation time: Good and Good §

## Poly(D,L-methionine sulfoxide) DODASuc [Ex. 15]
[2]
  Polydispersity index: 0.062
  Average particle size: 159.9 ± 2.3 nm
[1]
  Blood circulation time of the liposomes compared with PEG-grafted liposomes: Results similar to those obtained with the corresponding PEG-grafted liposomes
[1]; [5]
  Increase of blood circulation time: Good

## Poly(DL-asparagine) DODASuc [Ex. 17]
[1]; [5]
  Increase of blood circulation time: Moderate

## Poly(DL-glutamine DODASuc [Ex. 16]
[1]; [5]
  Increase of blood circulation time: Moderate

## Poly(DL-serine) DODASuc [Ex. 13]
[1]; [5]
  Increase of blood circulation time: Slightly

## Poly(N-(2-hydroxyethyl)-L-glutamine) Having a Heptadecyloctadecylamine End Group [Ex. 2]
[2]
  Polydispersity index: 0.205
  Average particle size: 143 ± 2 nm

## Poly-L-threonine DODASuc [compound 14]
[3]; [6]
  Mean particle size: about 85 nm

## Poly-[(2-hydroxypropyl)-L-glutamine]diaminobutane DODASuc [Ex. 5.2]
[2]; [10]
  Average particle size: 163.9 ± 3.0 nm
  Polydispersity index: 0.068
[2]; [11]
  Average particle size: 153.0 ± 0.9 nm
  Polydispersity index: 0.090

## Poly-[(4-hydroxybutyl)-L-glutamine]diaminobutane DODASuc [Ex. 5.4]
[2]
  Polydispersity index: 0.071
  Average particle size: 148.2 ± 1.7 nm

## Poly-[N-(2-hydroxyethyl)-L-glutamine] Having a Distearylamine End Group Introduced Via N-Boc-1,4-diaminobutane as Initiator [Ex. 3]
[2]
  Polydispersity index: 0.056
  Average particle size: 153 ± 0.5 nm

## poly(HEG-co-dimethylaminoethylglutamine)diaminobutane DODASuc; 5% dimethylaminoethyl sidegroups [Ex. 9]
[2]
  Polydispersity index: 0.039
  Average particle size: 170.3 ± 2.5 nm
[1]; [5]
  Increase of blood circulation time: Moderate

## poly-[N-(2-hydroxyethyl)-L-glutamine]-stearylamine [Ex. 20]
[2]
  Polydispersity index: 0.167
  Average particle size: 171.6 ± 2.5 nm
[3]; EPC/cholesterol/PHEG-stearylamine liposomes of Example 20
  Polydispersity index: 0.099±0.02
[3]; EPC/cholesterol/PHEG-stearylamine liposomes of Example 20, light scattering (Malvern Zeta-sizer)
  Mean particle size: 93.6±0.9 nm
